According to patent WO2018134389A1:
Read-outs that look alike come from different tables or passages of the source.

Columns and labels:
[1] = molecular target: DC-SIGN ECD immobilised on a streptactin-functionalised SPR surface (human) (UniProt Q9NNX6)
[2] = molecular target: DC-SIGN ECD immobilised on a streptactin-functionalised SPR surface (human) (UniProt Q9NNX6); remark: listed apart in the source

Chain of DC-SIGN ECD immobilised on a streptactin-functionalised SPR surface (human) (Q9NNX6 59-404): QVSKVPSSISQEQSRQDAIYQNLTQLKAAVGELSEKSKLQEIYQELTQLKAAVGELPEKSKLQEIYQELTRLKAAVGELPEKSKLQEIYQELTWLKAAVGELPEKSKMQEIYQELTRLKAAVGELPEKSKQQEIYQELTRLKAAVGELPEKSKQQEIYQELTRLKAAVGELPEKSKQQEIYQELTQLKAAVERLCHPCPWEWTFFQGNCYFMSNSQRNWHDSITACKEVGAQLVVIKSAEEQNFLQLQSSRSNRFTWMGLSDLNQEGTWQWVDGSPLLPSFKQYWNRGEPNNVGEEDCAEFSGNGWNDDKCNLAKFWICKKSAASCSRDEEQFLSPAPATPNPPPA
Chain of CHO-derived recombinant CMV glycoprotein B (soluble recombinant HCMV gB), untreated (P13201 25-907 limits assumed): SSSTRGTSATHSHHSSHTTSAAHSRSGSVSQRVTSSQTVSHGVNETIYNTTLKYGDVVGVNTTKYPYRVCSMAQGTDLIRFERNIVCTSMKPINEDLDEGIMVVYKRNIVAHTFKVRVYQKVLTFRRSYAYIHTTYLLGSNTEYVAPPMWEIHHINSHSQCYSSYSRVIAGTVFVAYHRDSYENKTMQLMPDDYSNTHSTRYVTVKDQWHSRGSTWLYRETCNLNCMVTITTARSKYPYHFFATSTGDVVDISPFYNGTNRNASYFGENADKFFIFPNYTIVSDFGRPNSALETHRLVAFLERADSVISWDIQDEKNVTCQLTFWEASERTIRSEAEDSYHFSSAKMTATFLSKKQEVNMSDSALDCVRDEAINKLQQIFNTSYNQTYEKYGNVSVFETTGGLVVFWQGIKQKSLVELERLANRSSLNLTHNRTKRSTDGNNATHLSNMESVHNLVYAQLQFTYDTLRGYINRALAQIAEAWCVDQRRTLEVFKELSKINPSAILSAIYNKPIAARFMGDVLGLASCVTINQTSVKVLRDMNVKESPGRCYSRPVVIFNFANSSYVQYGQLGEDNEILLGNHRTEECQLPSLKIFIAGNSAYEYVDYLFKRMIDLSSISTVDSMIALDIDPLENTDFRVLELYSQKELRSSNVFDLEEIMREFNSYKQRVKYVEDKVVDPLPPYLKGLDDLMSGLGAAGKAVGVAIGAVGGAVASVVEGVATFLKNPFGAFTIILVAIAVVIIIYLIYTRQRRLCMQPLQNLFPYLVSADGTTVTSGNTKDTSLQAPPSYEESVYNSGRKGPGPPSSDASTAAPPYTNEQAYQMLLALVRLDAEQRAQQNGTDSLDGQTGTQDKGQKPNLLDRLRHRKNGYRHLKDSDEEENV
Chain of HCMV gB treated with a(1-2,3,6)-mannosidase (P13201 25-907 limits assumed): as above

Substance	Kd [1]	Kd [2]
CHO-derived recombinant CMV glycoprotein B (soluble recombinant HCMV gB), untreated (from UniProt P13201 25-907) (ligand)	0.014 nM	–
HCMV gB treated with a(1-2,3,6)-mannosidase (from UniProt P13201 25-907) (ligand)	–	0.149 nM
